According to the FLAb antibody collection:
Values joined by “and” are separate entries in the source; they are usually repeats but may differ in a detail not shown here. Equal values may be shown once.

B1: unnamed (protein)
chain 1: QVQLVESGGGVVQPGRSLRLSCAASGFTFSSYGMHWVRQAPGKGLEWVAVIWYDGSNKYYADSVKGRFTISRDNSKNTLYLQMNSLRAEDTAVYYCARDPRGATLYYYYYGMDVWGQGTTVTVSS
chain 2: DIQMTQSPSSLSASVGDRVTITCRASQSINSYLDWYQQKPGKAPKLLIYAASSLQSGVPSRFSGSGSGTDFTLTISSLQPEDFATYYCQQYYSTPFTFGPGTKVEIK
B2: unnamed (protein)
chain 1: EVQLQQSGPELEKPGASVKLSCKASGYSFTGYNMNWVKQSHGKSLEWIGHIDPYYGDTSYNQKFRGKATLTVDKSSSTAYMQLKSLTSEDSAVYYCVKGGYYGHWYFDVWGAGTTVTVSS
chain 2: DIQMTQSPSSLSASLGERVSLTCRASQDIGSSLNWLQQGPDGTIKRLIYATSSLDSGVPKRFSGSRSGSDYSLTISSLESEDFVDYYCLQYVSSPPTFGAGTKLELK
B3: unnamed (protein)
chain 1: EVQLVESGGGLVKPGGSLRLSCAASGFTFSNYAMSWVRQAPGKGLEWVATISSGGSHTYYLDSVKGRFTISRDNSKNTLYLQMNSLRAEDTALYYCARLFTGYAMDYWGQGTLVTVSS
chain 2: QIVLTQSPATLSLSPGERATMSCTASSSVSSSYLHWYQQKPGKAPKLWIYSTSNLASGVPSRFSGSGSGTDYTLTISSLQPEDFATYYCHQYYRLPPITFGQGTKLEIK
B4: unnamed (protein)
chain 1: QMQLVESGGGVVQPGRSLRLSCAASGFTFRTYGMHWVRQAPGKGLEWVAVIWYDGSNKHYADSVKGRFTITRDNSKNTLNLQMNSLRAEDTAVYYCARAPQWELVHEAFDIWGQGTMVTVSS
chain 2: SYVLTQPPSVSVAPGQTARITCGGNNLGSKSVHWYQQKPGQAPVLVVYDDSDRPSWIPERFSGSNSGNTATLTISRGEAGDEADYYCQVWDSSSDHVVFGGGTKLTVL
B5: unnamed (protein)
chain 1: EVQLVESGGGLVQPGGSLRLSCAASGFTFSSYVMSWVRQAPGKGLEWVATISSGGSYTYYPDSVKGRFTISRDNAKNTLYLQMNSLRAEDTAVYYCARRGDSMITTDYWGQGTLVTVSS
chain 2: DIQMTQSPSSLSASVGDRVTITCKASQDVGTAVAWYQQKPGKAPKLLIYWASTRHTGVPSRFSGSGSGTDFTLTISSLQPEDFATYYCQQYSSYRTFGQGTKVEIK
B6: unnamed (protein)
chain 1: QVQLVESGGGLVQPGGSLRLSCAASGFTFRSHWLSWVRQAPGKGLEWVSNINYDGSSTYYADSVKGRFTISRDNSKNTLYLQMNSLRAEDTAVYYCARDTYLHFDYWGQGTLVTVSS
chain 2: DIALTQPASVSGSPGQSITISCTGTSSDVGDINDVSWYQQHPGKAPKLMIYDVNNRPSGVSNRFSGSKSGNTASLTISGLQAEDEADYYCQSYAGSYLSEVFGGGTKLTVL
B7: unnamed (protein)
chain 1: QVQLQQWGAGLLKPSETLSLTCAVYGGSFSGYYWSWIRQPPGKGLEWIGEINHSGSTNYNPSLKSRVTISVDTSKNQFSLKLSSVTAADTAVYYCARGYYDILTGYYYYFDYWGQGTLVTVSS
chain 2: EIVLTQSPATLSLSPGERATLSCRASQSVSRYLAWYQQKPGQAPRLLIYDASNRATGIPARFSGSGSGTDSTLTISSLEPEDFAVYYCQQRSNWPRTFGQGTKVEIK
B8: unnamed (protein)
chain 1: QVQLVQSGAEVKKPGSSVKVSCKASGYTFTDYEMHWVRQAPGQGLEWIGAVAPETGGTAYNQKFKGRATITADKSTSTAYMELSSLRSEDTAVYYCTSTVVPFAYWGQGTLVTVSS
chain 2: QIQLTQSPSSLSASVGDRVTITCSASSSVSYMYWYQQKPGKAPKAWIYRTSNLASGVPSRFSGSGSGTDYTLTISSLQPEDFATYYCQQYQSLPLTFGGGTKVEIK
B9: unnamed (protein)
chain 1: EVQLVESGGGLVQPGGSLRLSCAASGFTFSPFAMSWVRQAPGKGLEWVAKISPGGSWTYYSDTVTGRFTISRDNAKNSLYLQMNSLRAEDTAVYYCARQLWGYYALDIWGQGTTVTVSS
chain 2: EIVLTQSPATLSLSPGERATLSCSASISVSYMYWYQQKPGQAPRLLIYDMSNLASGIPARFSGSGSGTDFTLTISSLEPEDFAVYYCMQWSGYPYTFGGGTKVEIK
B10: unnamed (protein)
chain 1: EVQLVESGGDLVQPGRSLRLSCVASGFTFDDYAMHWVRQAPGKGLEWVSGVSWSGSTVGYADSVKGRFTVSRDNAQKSLYLQMNSLRAEDTALYYCVKDAYKFNYYYYGLDVWGQGTTVTVSS
chain 2: EIVMTQSPATLSVSPGERATLSCRASQTILSNLAWYLQKPGQAPRLLIYGASTRATGLPARFSGSGSGTEFTLTISSLQSEDFAVYYCQQYNNWPLTFGGGTKVEIK
B11: unnamed (protein)
chain 1: QVQLVQSGAEVKKPGASVKVSCKASGYIFITYWMTWVRQAPGQGLEWMGQIFPASGSADYNEKFEGRVTMTTDTSTSTAYMELRSLRSDDTAVYYCARGGGGFAYWGQGTLVTVSS
chain 2: DIQMTQSPSSLSASVGDRVTITCRTSENIYSYLAWYQQKPGKAPKLLIYNAKTLAEGVPSRFSGSGSGTDFTLTISSLQPEDFATYYCQHHYGIPFTFGQGTKVEIK
B12: unnamed (protein)
chain 1: EVQLVESGGGLVQPGRSLRLSCAASRFTFDDYAMHWVRQAPGKGLEWVSGISWNSGRIGYADSVKGRFTISRDNAENSLFLQMNGLRAEDTALYYCAKGRDSFDIWGQGTMVTVSS
chain 2: DIQMTQSPSSVSASVGDRVTITCRASQGISSWLAWYQQKPGKAPKLLIYGASSLESGVPSRFSGSGSGTDFTLTISSLQPEDFASYYCQQANSFPYTFGQGTKLEIK
B13: unnamed (protein)
chain 1: QVQLQQSDAELVKPGASVKISCKASGYTFTDHAIHWAKQKPEQGLEWIGYISPGNDDIKYNEKFKGKATLTADKSSSTAYMQLNSLTSEDSAVYFCKRSYYGHWGQGTTLTVSS
chain 2: DIQMTQSPASLSVSVGETVTITCRASENIYSNLAWYQQKQGKSPQLLVYAATNLADGVPSRFSGSGSGTQYSLKINSLQSEDFGSYYCQHFWGTPYTFGGGTRLEIK
B14: unnamed (protein)
chain 1: EVQLVQSGAEVKKPGESLKISCKGSGYSFTDYYMKWARQMPGKGLEWMGDIIPSNGATFYNQKFKGQVTISADKSISTTYLQWSSLKASDTAMYYCARSHLLRASWFAYWGQGTMVTVSS
chain 2: DIVMTQSPDSLAVSLGERATINCESSQSLLNSGNQKNYLTWYQQKPGQPPKPLIYWASTRESGVPDRFSGSGSGTDFTLTISSLQAEDVAVYYCQNDYSYPYTFGQGTKLEIK
B15: unnamed (protein)
chain 1: QVQLQQSGAELVKPGASVKLSCKASGYTFRSYDINWVRQRPEQGLEWIGWIFPGDGSTKYNEKFKGKATLTTDKSSSTAYMQLSRLTSEDSAVYFCARWTVVGPGYFDVWGAGTTVTVSS
chain 2: QIVLTQSPAIMSASPGEKVTITCSASSSVSYMNWFQQKPGTSPKLWIYSTSNLASGVPARFSGSGSGTSYSLTISRMEAEDAATYYCQQRSSYPNTFGGGTKLEIK
B16: unnamed (protein)
chain 1: EVQLVESGGGLVQPGGSLRLSCAASGFTFSRYSMSWVRQAPGKGLELVAQINSVGNSTYYPDTVKGRFTISRDNAKNTLYLQMNSLRAEDTAVYYCASGDYWGQGTLVTVSS
chain 2: DVVMTQSPLSLPVTLGQPASISCRSSQSLIYSDGNAYLHWFLQKPGQSPRLLIYKVSNRFSGVPDRFSGSGSGTDFTLKISRVEAEDVGVYYCSQSTHVPWTFGQGTKVEIK
B17: unnamed (protein)
chain 1: QVQLVQSGAEVKKPGASVKVSCKASGYTFTNYGMNWVRQAPGQGLEWMGWINTYTGEPTYADDFKGRVTMTTDTSTSTAYMELRSLRSDDTAVYYCARIGDSSPSDYWGQGTLVTVSS
chain 2: EIVMTQSPATLSVSPGERATLSCKASQSVSNDVVWYQQKPGQAPRLLIYYASNRYTGIPARFSGSGSGTEFTLTISSLQSEDFAVYYCQQDYTSPWTFGQGTKLEIK
B18: unnamed (protein)
chain 1: EVQLVESGGKLLKPGGSLKLSCAASGFTFSSFAMSWFRQSPEKRLEWVAEISSGGSYTYYPDTVTGRFTISRDNAKNTLYLEMSSLRSEDTAMYYCARGLWGYYALDYWGQGTSVTVSS
chain 2: QIVLIQSPAIMSASPGEKVTMTCSASSSVSYMYWYQQKPGSSPRLLIYDTSNLASGVPVRFSGSGSGTSYSLTISRMEAEDAATYYCQQWSGYPYTFGGGTKLEIK
B19: unnamed (protein)
chain 1: EVQLVESGGGLVQPGGSLRLSCAASGFTFSSSGMSWVRQAPGKGLEWVSVIASSGSNTYYADSVKGRFTISRDNSKNTLYLQMNSLRAEDTAVYYCARSIFYTTWGQGTLVTVSS
chain 2: not shown
B20: unnamed (protein)
chain 1: EVQLVESGGGLVQPGGSLRLSCAASGFTFSSHDMHWVRQATGKGLEWVSGIGTAGDTYYPDSVKGRFTISRENAKNSLYLQMNSLRAGDTAVYYCARDRYSPTGHYYGMDVWGQGTTVTVSS
chain 2: DIQMTQSPSTLSASVGDRVTITCRASQSISSWLAWYQQKPGKAPKLLIYKASSLESGVPSRFSGSGSGTEFTLTISSLQPDDFATYYCKQYADYWTFGQGTKVEIK

Test: patients with anti-drug antibodies; higher = more immunogenic

Protein	patients with anti-drug antibodies
B1	2% and 0%
B2	58%
B3	8%
B4	2.1%
B5	0%
B6	0%
B7	4.4%
B8	0%
B9	2.9%
B10	5%
B11	6.5%
B12	3.8%
B13	55%
B14	17.5%
B15	28%
B16	3.5%
B17	0%
B18	0.2%
B19	26%
B20	3%
